Series [1] concerns the target T1, protein phosphatase 5 (PP5) (Homo sapiens (Human), UniProt P53041 1-499, limits assumed).
T1 construct: Wildtype PP5; also called protein phosphatase type 5; cell cycle protein
T1 sequence: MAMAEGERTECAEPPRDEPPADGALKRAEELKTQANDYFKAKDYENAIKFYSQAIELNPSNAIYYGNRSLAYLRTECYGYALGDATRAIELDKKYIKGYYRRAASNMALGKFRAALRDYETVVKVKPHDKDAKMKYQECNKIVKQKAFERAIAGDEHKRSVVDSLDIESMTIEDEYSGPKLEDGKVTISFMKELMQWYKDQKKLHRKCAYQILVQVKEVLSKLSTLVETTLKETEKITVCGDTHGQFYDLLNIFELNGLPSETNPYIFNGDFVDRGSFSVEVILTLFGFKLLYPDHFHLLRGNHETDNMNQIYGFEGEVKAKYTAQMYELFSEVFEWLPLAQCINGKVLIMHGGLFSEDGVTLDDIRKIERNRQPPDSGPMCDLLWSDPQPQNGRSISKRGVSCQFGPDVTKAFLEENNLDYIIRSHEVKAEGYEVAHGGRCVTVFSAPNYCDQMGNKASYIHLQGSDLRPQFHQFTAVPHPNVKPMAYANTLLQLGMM
Put plainly: coimmunoprecipitation, gel.

The next series concerns the target T2, Rad9.
T2 chain: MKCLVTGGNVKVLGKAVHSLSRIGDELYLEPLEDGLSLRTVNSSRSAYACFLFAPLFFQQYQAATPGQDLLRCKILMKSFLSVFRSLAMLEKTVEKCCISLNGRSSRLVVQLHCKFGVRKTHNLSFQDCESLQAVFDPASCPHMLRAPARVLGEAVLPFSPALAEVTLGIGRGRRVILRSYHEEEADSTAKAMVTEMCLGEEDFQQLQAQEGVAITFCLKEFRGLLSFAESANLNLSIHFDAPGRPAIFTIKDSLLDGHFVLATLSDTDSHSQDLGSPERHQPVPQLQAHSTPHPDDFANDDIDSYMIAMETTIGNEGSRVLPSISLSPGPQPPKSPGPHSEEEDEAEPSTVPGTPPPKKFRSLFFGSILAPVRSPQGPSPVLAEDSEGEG

The results in this text go back to US7384761 (RIGEL PHARMACEUTICALS, dated 2008).

B1: Rad9 (other)
chain: T2 chain
notes: also called human Rad9
Consider B1, for which the binding result in series [1] is recorded as “binds”.

B2: protein phosphatase 5 (PP5) (protein)
chain: T1 sequence
For the molecule B2, in the series with Rad9, the “dephosphorylation of Rad9” value was “cotransfection of PP5 with Rad9 in HeLa cells leads to dephosphorylation of Rad9 which is dependent on phophatase activity of PP5” and the “dephosphorylation of Rad9 in vitro” value is reported as “PP5 dephosphorylates Rad9 directly in vitro”.
